From the supplement of paper PMC10567573

B1: ISL2 (parent)
chain: HYPFLGAMGDHSKKKPGTAMCVGC
B2: CDS2 (parent)
chain: LIVVTQSHLVIHNLFEGMIWFIVP

Variants of: B1
Experiment: protein stability index of a GFP-peptide fusion (GPS, HEK-293T) (PSI 1-6); higher = more stable
Conditions: c terminus: a fixed tail appended
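Note: lentivirally expressed fusions sorted by FACS into six bins by GFP to DsRed ratio, PSI derived from sequencing read proportions per bin multiplied by bin number.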

Variant	protein stability index
HYPFLGAMGDHSKKKPGTAMCVGT [C24T]	2.83
HYPFLGAMGDHSKKKPGTAMCVGV [C24V]	3.24
HYPFLGAMGDHSKKKPGTAMCVGW [C24W]	1.68
HYPFLGAMGDHSKKKPGTAMCVGY [C24Y]	2.75

Variants of: B2
Experiment: as above
Conditions: c terminus: a fixed tail appended

Variant	protein stability index
NIVVTQSHLVIHNLFEGMIWFIVP [L1N]	2.67
LIVVTQSHLVIPNLFEGMIWFIVP [H12P]	1.35
LIVVTQSHFVIHNLFEGMIWFIVP [L9F]	1.48
LIVVTQSHLVIHNLFEGMIWFIVV [P24V]	2.65
LIVVTQRHLVIHNLFEGMIWFIVP [S7R]	4.35
LIFVTQSHLVIHNLFEGMIWFIVP [V3F]	3.18
LIVVTQSHLQIHNLFEGMIWFIVP [V10Q]	4.6
LIVVTQSHLVIHNLFEGMIWFIIP [V23I]	2.9
LIVVTQSHLVIHNLFEGMIVFIVP [W20V]	3.06
LIVRTQSHLVIHNLFEGMIWFIVP [V4R]	3.46
LIVVTTSHLVIHNLFEGMIWFIVP [Q6T]	2.85
LIYVTQSHLVIHNLFEGMIWFIVP [V3Y]	2.91
LIVVTQSHLVIHNTFEGMIWFIVP [L14T]	3.05
LIVWTQSHLVIHNLFEGMIWFIVP [V4W]	1.83
LIVVTDSHLVIHNLFEGMIWFIVP [Q6D]	4.07
LIVVTQSHLVIHNLFSGMIWFIVP [E16S]	3.4
LIVVTQSHLVIHNLFEGMIWFIQP [V23Q]	1.52
LIVVTQSLLVIHNLFEGMIWFIVP [H8L]	3.47
LIVVKQSHLVIHNLFEGMIWFIVP [T5K]	2.97
LIVVMQSHLVIHNLFEGMIWFIVP [T5M]	3.04
AIVVTQSHLVIHNLFEGMIWFIVP [L1A]	3.25
LIVVTQSHLVIHNLFEGMMWFIVP [I19M]	2.95
LIVVTQSHLVIHNLSEGMIWFIVP [F15S]	3.64

Variant	protein stability index
LIVVTQFHLVIHNLFEGMIWFIVP [S7F]	2.19
MIVVTQSHLVIHNLFEGMIWFIVP [L1M]	3.16
LIVVTQSHLVIHNLFEGMIWFICP [V23C]	3.47
LIVVTQSHLVIHNLFEGMINFIVP [W20N]	3.08
LIVVTQSHLVIHNLFEGCIWFIVP [M18C]	4.05
LIVVTQSHLHIHNLFEGMIWFIVP [V10H]	2.88
LIVVTQSHLVIHNLFLGMIWFIVP [E16L]	4.5
LIVVTQSHLVIHFLFEGMIWFIVP [N13F]	2.94
LIVVTQSHLVIHNLFEGMIGFIVP [W20G]	2.19
LIVVTQSGLVIHNLFEGMIWFIVP [H8G]	4.59
LIVVTQSHLVIHNEFEGMIWFIVP [L14E]	2.99
LIVVTQSHLVIHNLFEGMIWFIVG [P24G]	3.29
LIVVTQSHLVIHNIFEGMIWFIVP [L14I]	3.44
LIVVTQSHLVIHNLFEGMIWFIVD [P24D]	2.06
LIVVTQSHLVGHNLFEGMIWFIVP [I11G]	2.27
LCVVTQSHLVIHNLFEGMIWFIVP [I2C]	1.83
LIVVTQSHLVIHNLFEGYIWFIVP [M18Y]	3.67
LIVVTQSHLVIHNLFEGMIWTIVP [F21T]	3.04
LIVVTQSHLVIHNLFEGMIIFIVP [W20I]	3.21
LRVVTQSHLVIHNLFEGMIWFIVP [I2R]	3.79
LIVVTQSHLVIHNLFEGDIWFIVP [M18D]	3.2
LITVTQSHLVIHNLFEGMIWFIVP [V3T]	2.85
LIVVTQSHLVIHNLFEGMIWFIVN [P24N]	2.81

Variant	protein stability index
LIVVTQSHLVIHVLFEGMIWFIVP [N13V]	3.45
LIVVIQSHLVIHNLFEGMIWFIVP [T5I]	2.58
LIVVTQSHLVIHNLFEIMIWFIVP [G17I]	1.85
LIVVTQSHLVIHNLFEGMIWFIVS [P24S]	1.99
LIKVTQSHLVIHNLFEGMIWFIVP [V3K]	3.44
LIVVTQSHLVIHNLFEWMIWFIVP [G17W]	2.35
LIVVTQSHLVIHNLFEGMIWFMVP [I22M]	3.27
IIVVTQSHLVIHNLFEGMIWFIVP [L1I]	3.5
LIVVTQSHLVIHSLFEGMIWFIVP [N13S]	3.02
LWVVTQSHLVIHNLFEGMIWFIVP [I2W]	3.71
LIVVTQSHLVIHNLFEGIIWFIVP [M18I]	3.09
LIVVTRSHLVIHNLFEGMIWFIVP [Q6R]	1.46
LIVPTQSHLVIHNLFEGMIWFIVP [V4P]	2.36
LIEVTQSHLVIHNLFEGMIWFIVP [V3E]	2.45
LIVVTQSHLVIHNLMEGMIWFIVP [F15M]	4.48
LIVVCQSHLVIHNLFEGMIWFIVP [T5C]	4.62
LIVVTQSHLVIHNLQEGMIWFIVP [F15Q]	2.25
LIVVRQSHLVIHNLFEGMIWFIVP [T5R]	3.33
LIVVTQSHLVIHNLFEAMIWFIVP [G17A]	3.15
LIVVTQSHLVIHNLFEGFIWFIVP [M18F]	3.12
LIWVTQSHLVIHNLFEGMIWFIVP [V3W]	4.23
LISVTQSHLVIHNLFEGMIWFIVP [V3S]	3.43
LIVVTQSHLVIHNLFEGMIWNIVP [F21N]	3.24

Variant	protein stability index
LIVVTQSHSVIHNLFEGMIWFIVP [L9S]	1.96
LIVVTQSHLVIHNYFEGMIWFIVP [L14Y]	3.06
LIVVTCSHLVIHNLFEGMIWFIVP [Q6C]	2.42
LIVVTQSHLVFHNLFEGMIWFIVP [I11F]	3.51
LFVVTQSHLVIHNLFEGMIWFIVP [I2F]	1.75
LIVVTQSHLVIHNLFEHMIWFIVP [G17H]	2.8
LIVVHQSHLVIHNLFEGMIWFIVP [T5H]	3.62
SIVVTQSHLVIHNLFEGMIWFIVP [L1S]	3.83
LIVVTQSHLVITNLFEGMIWFIVP [H12T]	4.2
LIVVTQSHLVIHNLFFGMIWFIVP [E16F]	2.52
LIVVTQSHLVIHNLFEGMIWFAVP [I22A]	2.07
LIVVTQSHLVIHNLFESMIWFIVP [G17S]	3.9
LIVVTQSHLVIHNLFEGMKWFIVP [I19K]	2.41
LIVVTQSHLVIHNLFEGVIWFIVP [M18V]	4.17
LIVVAQSHLVIHNLFEGMIWFIVP [T5A]	2.62
LIVVTQSHLPIHNLFEGMIWFIVP [V10P]	1.52
LIVVTQSHRVIHNLFEGMIWFIVP [L9R]	2.9
LIVVTQSHLVLHNLFEGMIWFIVP [I11L]	2.48
LIVVTQSHDVIHNLFEGMIWFIVP [L9D]	2.62
LIVVTQSHLVIINLFEGMIWFIVP [H12I]	1.85
LIVVTQSHLVIHNLFEYMIWFIVP [G17Y]	1.68
LIVVTQSHLFIHNLFEGMIWFIVP [V10F]	3.01
LIVVTQSHLVIHNLFEGMIWFDVP [I22D]	4.26

Variant	protein stability index
LIVVTQSHLVIHNLFEGMIWFIVW [P24W]	3.81
LIVVTQSHLVIHNLLEGMIWFIVP [F15L]	2.41
LIVVTQSHLVIHNLFEGMIWFYVP [I22Y]	2.27
LIVVTQSHLVIHILFEGMIWFIVP [N13I]	4.67
LIVVTQSHLVIHNLFGGMIWFIVP [E16G]	2.9
LIVDTQSHLVIHNLFEGMIWFIVP [V4D]	3.18
LIVVTQSHPVIHNLFEGMIWFIVP [L9P]	5.08
LIVVLQSHLVIHNLFEGMIWFIVP [T5L]	2.71
LIVVTQSHLVIHNLFEGMIWFIFP [V23F]	4.17
LIVVVQSHLVIHNLFEGMIWFIVP [T5V]	2.65
LIVVTQSHLVIHNLFEQMIWFIVP [G17Q]	2.63
LIVVTQSHLVIHNLFELMIWFIVP [G17L]	3.83
LIVVTQSHLVIHNKFEGMIWFIVP [L14K]	3.69
LIVVTQSHLVIHNGFEGMIWFIVP [L14G]	3.6
LIVVTQSHLVIHNLREGMIWFIVP [F15R]	2.03
LIVVTQSDLVIHNLFEGMIWFIVP [H8D]	4.35
DIVVTQSHLVIHNLFEGMIWFIVP [L1D]	3.86
LIVVTQSHLWIHNLFEGMIWFIVP [V10W]	2.46
LIVVTQSHLVIHNDFEGMIWFIVP [L14D]	3.03
LIVVPQSHLVIHNLFEGMIWFIVP [T5P]	3.86
LIVVTQSRLVIHNLFEGMIWFIVP [H8R]	2.81
LIVVTQSHLVSHNLFEGMIWFIVP [I11S]	3.42
LIVCTQSHLVIHNLFEGMIWFIVP [V4C]	3.17

Variant	protein stability index
LIVVTQSHLVIHNLFEGMIWFRVP [I22R]	2.85
LIVVTQSHLVIHNPFEGMIWFIVP [L14P]	2.64
LIVVTQSHLVIHNLFEGGIWFIVP [M18G]	2.85
TIVVTQSHLVIHNLFEGMIWFIVP [L1T]	4.15
LIVVTQSHLVIHNLFKGMIWFIVP [E16K]	2.35
LIVVTQSHLVIHNLFPGMIWFIVP [E16P]	2.48
LIVVTQSHLVIHNLKEGMIWFIVP [F15K]	3.4
LIVVTQSHLVIHNLFEGMPWFIVP [I19P]	3.75
LIVVTQSHLVIHNLFEGMFWFIVP [I19F]	2.89
LIVVTQSHYVIHNLFEGMIWFIVP [L9Y]	2.24
LIVVTQSHLVIHGLFEGMIWFIVP [N13G]	2.9
LIVVTQSHLVIHNLFEGRIWFIVP [M18R]	1.99
LIVVTQSHLVIHHLFEGMIWFIVP [N13H]	1.83
LIVVTQSHLVIHNLFEGAIWFIVP [M18A]	4.48
LIVNTQSHLVIHNLFEGMIWFIVP [V4N]	3.21
LIVGTQSHLVIHNLFEGMIWFIVP [V4G]	3.49
LIVVTQSHAVIHNLFEGMIWFIVP [L9A]	2.29
LIVVTQSHLVIHNLFEGMIWSIVP [F21S]	2.8
LIVQTQSHLVIHNLFEGMIWFIVP [V4Q]	2.74
LIVVTQSHLVIHNLFEVMIWFIVP [G17V]	3.48
LIVVTESHLVIHNLFEGMIWFIVP [Q6E]	2.59
LIVVTQSHTVIHNLFEGMIWFIVP [L9T]	3.82
LIVVTQSHNVIHNLFEGMIWFIVP [L9N]	2.36

Variant	protein stability index
LIVVTQSHLVDHNLFEGMIWFIVP [I11D]	3.58
LIVVTQSHLVIHALFEGMIWFIVP [N13A]	4.23
LIVVTQSHLDIHNLFEGMIWFIVP [V10D]	1.79
LIVVTQSHLVIHNLFEGMIWFLVP [I22L]	3.99
LIVVTQSHLVIHMLFEGMIWFIVP [N13M]	4.66
LIVVYQSHLVIHNLFEGMIWFIVP [T5Y]	2.99
LIVVTQSHLVIRNLFEGMIWFIVP [H12R]	1.5
LIVVTQSHLVEHNLFEGMIWFIVP [I11E]	2.39
LIVVTQPHLVIHNLFEGMIWFIVP [S7P]	4.35
LIVVTQSHLVIHNQFEGMIWFIVP [L14Q]	2.25
LIVVTQSHLKIHNLFEGMIWFIVP [V10K]	2.67
LIVVTQSHLVIHNLFEGMIWFIAP [V23A]	2.36
LIVVTQSHLMIHNLFEGMIWFIVP [V10M]	2.77
LIVSTQSHLVIHNLFEGMIWFIVP [V4S]	4.44
LIVVTQSHLVRHNLFEGMIWFIVP [I11R]	2.2
LIVVTQSELVIHNLFEGMIWFIVP [H8E]	2.35
LIVVTQDHLVIHNLFEGMIWFIVP [S7D]	2.68
LIVVTQSHHVIHNLFEGMIWFIVP [L9H]	1.56
LIVVTQSHIVIHNLFEGMIWFIVP [L9I]	1.84
LIVVTQSHLVIHNLFEGMIKFIVP [W20K]	1.61
LIVVTQSHLVIHNLFEGMAWFIVP [I19A]	2.65
LIVVTQSHLVIHNLFERMIWFIVP [G17R]	3.21
LIVVTQSHLVIHNLFEGMIWFQVP [I22Q]	1.69

Variant	protein stability index
LIVVTQSHLVIHNLFEGMIWIIVP [F21I]	3.28
LIVVTQSHLVIHNLFEGMIWFINP [V23N]	2.51
LIVVTQSHLVIHNLFEEMIWFIVP [G17E]	2.55
LIVVTQSHLVIHCLFEGMIWFIVP [N13C]	3.03
LIVVTQSHLAIHNLFEGMIWFIVP [V10A]	3.19
LIVVWQSHLVIHNLFEGMIWFIVP [T5W]	2.72
LIVVGQSHLVIHNLFEGMIWFIVP [T5G]	4.08
LIVVTQSHLVIHNLFEGMIWFIVR [P24R]	3.1
LIVVTNSHLVIHNLFEGMIWFIVP [Q6N]	3.99
LIVVTQYHLVIHNLFEGMIWFIVP [S7Y]	3.16
FIVVTQSHLVIHNLFEGMIWFIVP [L1F]	3.17
LIVVTQSHLVIHLLFEGMIWFIVP [N13L]	3.44
LIVVTQSHLVIHNLFEGMWWFIVP [I19W]	3.61
LIVVTMSHLVIHNLFEGMIWFIVP [Q6M]	1.77
LIVVTQSHLVIHNLFEDMIWFIVP [G17D]	2.93
LIVVTQSHLVCHNLFEGMIWFIVP [I11C]	3.04
LIVVTQSNLVIHNLFEGMIWFIVP [H8N]	3.36
LIVVTQSHLVIHNLFEGMIWFITP [V23T]	3.31
LIVVTQGHLVIHNLFEGMIWFIVP [S7G]	3.76
LIVVTQSHLVIHNLFENMIWFIVP [G17N]	2.29
LIVVTQHHLVIHNLFEGMIWFIVP [S7H]	2.31
LMVVTQSHLVIHNLFEGMIWFIVP [I2M]	2.66
QIVVTQSHLVIHNLFEGMIWFIVP [L1Q]	4.19
